Patent US20050245438A1 (SALK INSTITUTE FOR BIOLOGICAL STUDIES, published 2005)
Numbered stars: 1 amine (or outer) side, 2 acyl side, 3 side chain; on linkers, the order of the positions; unused ones are H or OH. Bridge positions count the residues as written; N and C are the ends. Square brackets hold non-standard residues; d marks the D form. Ends that are not written are not given here. * marks the point of attachment. (2S,3R)βMe2Nal = L-threo-(2S,3R)-β-methyl-2-naphthylalanine, (2S,3R)-2-amino-3-(naphthalen-2-yl)butanoic acid, C[C@H](c1ccc2ccccc2c1)[C@H](N[*:1])C(=O)[*:2]; threo‑(2S,3R)CβMe‑2Nal = threo-(2S,3R)-β-methyl-2-naphthylalanine (L-threo), C[C@H](c1ccc2ccccc2c1)[C@H](N[*:1])C(=O)[*:2]; Phe(4-CH2NH2) = NCc1ccc(C[C@H](N)C(=O)O)cc1; Tyr(127I) = tyrosine iodinated with ^127I; Phe(4-NH2) = Nc1ccc(C[C@H](N)C(=O)O)cc1; Carbamoyl = NC(=O)*

B1: (cyclo)H-Tyr-Cys-Phe-Ala-D-Trp-Lys-Thr-Phe-Cys-OH (peptide)
peptide: H-YCFA[dW]KTFC-OH
modifications: disulfide 2-9
notes: synthetic cyclic nonapeptide; also called Peptide No. 14
B2: (cyclo)H-Tyr-Cys-Phe-4 Amp-Trp-Lys-Thr-Phe-Cys-OH (peptide)
peptide: H-YCF[Phe(4-CH2NH2)]WKTFC-OH
modifications: disulfide 2-9
notes: here position 7 is 4Amp; also called Peptide 15; Peptide No. 15
B3: (cyclo)Cbm-Tyr-Cys-Phe-Amp-Trp-Lys-Thr-Phe-Cys-OH (peptide)
peptide: Carbamoyl-YCF[Phe(4-CH2NH2)]WKTFC-OH
modifications: disulfide 2-9
notes: synthetic cyclic nonapeptide; also called Peptide No. 15A
B4: (cyclo)H-D-Cys-Phe-Tyr-threo-(2S,3R)C^βMe-2Nal-Lys-Thr-Phe-Cys-OH (peptide)
peptide: H-[dC]FY[(2S,3R)βMe2Nal]KTFC-OH
modifications: disulfide 1-8
SMILES: C[C@H](c1ccc2ccccc2c1)[C@@H]1NC(=O)[C@H](Cc2ccc(O)cc2)NC(=O)[C@H](Cc2ccccc2)NC(=O)[C@H](N)CSSC[C@@H](C(=O)O)NC(=O)[C@H](Cc2ccccc2)NC(=O)[C@H]([C@@H](C)O)NC(=O)[C@H](CCCCN)NC1=O
notes: also called Peptide No. 16A; Peptide 16A
B5: (cyclo)H-Cys-Phe-Tyr-threo-(2S,3R)C^βMe-2Nal-Lys-Thr-Phe-Cys-OH (peptide)
peptide: H-CFY[threo‑(2S,3R)CβMe‑2Nal]KTFC-OH
modifications: disulfide 1-8
SMILES: C[C@H](c1ccc2ccccc2c1)[C@@H]1NC(=O)[C@H](Cc2ccc(O)cc2)NC(=O)[C@H](Cc2ccccc2)NC(=O)[C@@H](N)CSSC[C@@H](C(=O)O)NC(=O)[C@H](Cc2ccccc2)NC(=O)[C@H]([C@@H](C)O)NC(=O)[C@H](CCCCN)NC1=O
notes: later-eluting isomer, determined to incorporate the L-threo-β-Me-2Nal residue; also called Peptide No. 17A; 17a
B6: (cyclo)Cbm-Cys-Phe-4Aph-D-Trp-Lys-Thr-Tyr-Cys-OH (peptide)
peptide: Carbamoyl-CF[Phe(4-NH2)][dW]KTYC-OH
modifications: disulfide 1-8
notes: synthetic cyclic octapeptide; also called Peptide No. 10A
B7: (cyclo)H-Cys-Phe-Ala-D-Trp-Lys-Thr-Phe-Cys-OH (peptide)
peptide: H-CFA[dW]KTFC-OH
modifications: disulfide 1-8
SMILES: C[C@@H]1NC(=O)[C@H](Cc2ccccc2)NC(=O)[C@@H](N)CSSC[C@@H](C(=O)O)NC(=O)[C@H](Cc2ccccc2)NC(=O)[C@H]([C@@H](C)O)NC(=O)[C@H](CCCCN)NC(=O)[C@@H](Cc2c[nH]c3ccccc23)NC1=O
notes: synthetic cyclic octapeptide; also called Peptide 11; Peptide No. 11
B8: des-AA^1,2,4,5,12,13-[Ala^7]SRIF, (cyclo)H-Cys-Phe-Ala-Trp-Lys-Thr-Phe-Cys-OH (peptide)
peptide: H-CFAWKTFC-OH
modifications: disulfide 1-8
SMILES: C[C@@H]1NC(=O)[C@H](Cc2ccccc2)NC(=O)[C@@H](N)CSSC[C@@H](C(=O)O)NC(=O)[C@H](Cc2ccccc2)NC(=O)[C@H]([C@@H](C)O)NC(=O)[C@H](CCCCN)NC(=O)[C@H](Cc2c[nH]c3ccccc23)NC1=O
notes: synthetic cyclic octapeptide; also called Peptide No. 12
B9: (cyclo)H-Tyr-Cys-Phe-Ala-Trp-Lys-Thr-Phe-Cys-OH (peptide)
peptide: H-YCFAWKTFC-OH
modifications: disulfide 2-9
notes: synthetic cyclic nonapeptide; also called Peptide No. 13
B10: (cyclo)Cbm-Tyr-Cys-Phe-Ala-Trp-Lys-Thr-Phe-Cys-OH (peptide)
peptide: Carbamoyl-YCFAWKTFC-OH
modifications: disulfide 2-9
notes: synthetic cyclic nonapeptide; also called Peptide No. 13B
B11: (cyclo)Cys-Phe-Ala-D-Trp-Lys-Thr-Ala-Cys-OH (peptide)
peptide: CFA[dW]KTAC-OH
modifications: disulfide 1-8
notes: synthetic cyclic octapeptide; also called Peptide No. 12B
B12: (cyclo)H-Cys-Phe-Ala-Trp-Lys-Thr-Ala-Cys-OH (peptide)
peptide: H-CFAWKTAC-OH
modifications: disulfide 1-8
notes: synthetic cyclic octapeptide; also called Peptide 12A; Peptide No. 12A
B13: Peptide No. 13 iodinated with ^127I (peptide)
peptide: [Tyr(127I)]CFAWKTFC
modifications: disulfide 2-9
notes: also called Peptide No. 13A; the I-Tyr^2 analog

target: T1, cloned human SRIF receptor SSTR1 (human, UniProt P30872 1-391); test: radioligand displacement (125I-[Leu8,D-Trp22,Tyr25]SRIF-28), membrane pellet sections
T1 construct: whole, on cells; also called hSSTR1
T1 sequence (P30872 whole entry): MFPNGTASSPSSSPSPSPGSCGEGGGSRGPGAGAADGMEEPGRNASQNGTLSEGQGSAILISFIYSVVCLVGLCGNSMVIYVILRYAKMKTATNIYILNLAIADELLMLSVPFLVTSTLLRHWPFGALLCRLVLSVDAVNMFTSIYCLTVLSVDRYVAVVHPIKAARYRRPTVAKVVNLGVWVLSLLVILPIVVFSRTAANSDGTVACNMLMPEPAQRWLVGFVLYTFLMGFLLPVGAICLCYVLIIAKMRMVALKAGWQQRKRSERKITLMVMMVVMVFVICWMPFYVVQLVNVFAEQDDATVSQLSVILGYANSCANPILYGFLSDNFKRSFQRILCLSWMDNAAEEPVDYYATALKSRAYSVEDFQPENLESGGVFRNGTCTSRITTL
Method: (§1) Cells are washed twice with and scraped into ice-cold 0.05 M Tris-HCl (pH 7.4), collected by centrifugation, and homogenized using a rotor/stator/system in the same buffer. After centrifugation at 120 g for 5 min at 4° C., the supernatant is collected and centrifuged again at 48,000 g for 30 min at 4° C. The resulting pellet is resuspended in ice-cold Tris buffer, transferred into a microfuge tube, and centrifuged at 20,000 g for 15 min at 4° C. After withdrawal of the supernatant, the membrane pellet is stored at −80° C.
(§2) Receptor autoradiography is performed on 20 μm thick cryostat sections of the membrane pellets, mounted on microscope slides, and then stored at −20° C. […] Increasing concentrations of the unlabeled peptide are used ranging from 0.1-1000 nM. Unlabeled somatostatin-28 is run in parallel using the same increasing concentrations, as a control. IC₅₀ values are calculated after quantification of the data using a computer-assisted image processing system as known in this art.

Binder	IC50 [nM]
B1	330

target: T2, cloned human SRIF receptor SSTR2 (human, UniProt P30874 1-369); test: as above
T2 construct: whole, on cells; assayed as cryostat sections of membrane pellets of the transfected cells; also called hSSTR2
T2 sequence (P30874 whole entry): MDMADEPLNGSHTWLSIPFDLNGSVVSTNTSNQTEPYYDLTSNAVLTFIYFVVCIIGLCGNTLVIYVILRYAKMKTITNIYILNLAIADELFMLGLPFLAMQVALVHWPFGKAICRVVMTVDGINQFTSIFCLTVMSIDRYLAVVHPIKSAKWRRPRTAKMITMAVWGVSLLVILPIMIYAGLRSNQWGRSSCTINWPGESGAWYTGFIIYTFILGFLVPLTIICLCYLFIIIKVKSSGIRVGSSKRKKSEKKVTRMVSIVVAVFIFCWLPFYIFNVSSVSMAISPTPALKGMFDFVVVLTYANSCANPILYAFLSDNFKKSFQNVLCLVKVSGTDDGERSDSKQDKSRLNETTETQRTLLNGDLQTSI
Method: as §1, §2

Binder	IC50 [nM]
B2	259
B3	118
B4	339
B5	194
B6	227
B7	183
B8	807
B9	622
B10	700
B1	57

target: T3, cloned human SRIF receptor SSTR4 (human, UniProt P31391 1-388); test: as above
T3 construct: whole, on cells; assayed as cryostat sections of membrane pellets of the transfected cells; also called hSSTR4
T3 sequence (P31391 whole entry): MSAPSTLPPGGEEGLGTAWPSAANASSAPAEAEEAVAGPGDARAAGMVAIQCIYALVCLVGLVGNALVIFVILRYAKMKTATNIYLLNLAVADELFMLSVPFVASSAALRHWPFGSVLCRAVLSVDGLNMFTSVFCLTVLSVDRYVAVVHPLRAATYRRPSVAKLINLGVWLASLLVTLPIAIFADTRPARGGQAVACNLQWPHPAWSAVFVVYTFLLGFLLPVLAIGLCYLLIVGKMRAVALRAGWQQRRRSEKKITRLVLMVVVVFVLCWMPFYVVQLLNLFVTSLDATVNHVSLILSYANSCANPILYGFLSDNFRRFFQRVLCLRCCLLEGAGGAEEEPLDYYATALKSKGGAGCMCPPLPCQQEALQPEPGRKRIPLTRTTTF
Method: as §1, §2

Binder	IC50 [nM]
B2	2.4
B3	3.2
B4	3.5
B5	2.8
B6	4.3
B7	0.98
B11	9.5
B12	3.5
B8	0.84
B9	1.98
B13	3.5
B10	2.36
B1	1.1

target: T4, cloned human SRIF receptor SSTR3 (human, UniProt P32745 1-418); test: as above
T4 construct: whole, on cells; assayed as cryostat sections of membrane pellets of the transfected cells; also called hSSTR3
T4 sequence (P32745 whole entry): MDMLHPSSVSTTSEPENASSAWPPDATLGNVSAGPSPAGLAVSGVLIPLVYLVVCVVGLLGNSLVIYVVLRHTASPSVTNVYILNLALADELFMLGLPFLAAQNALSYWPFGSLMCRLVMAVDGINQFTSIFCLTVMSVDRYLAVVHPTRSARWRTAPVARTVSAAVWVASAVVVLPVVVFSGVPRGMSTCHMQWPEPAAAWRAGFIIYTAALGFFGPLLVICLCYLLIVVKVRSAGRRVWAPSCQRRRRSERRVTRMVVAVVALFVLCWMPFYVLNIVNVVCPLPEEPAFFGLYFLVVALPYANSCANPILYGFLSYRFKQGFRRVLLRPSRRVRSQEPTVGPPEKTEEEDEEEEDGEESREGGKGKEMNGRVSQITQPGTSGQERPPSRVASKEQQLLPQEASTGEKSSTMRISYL
Method: as §1, §2

Binder	IC50 [nM]
B2	326
B3	197
B4	664
B5	825
B7	897
B8	750
B9	621
B13	1020
B10	980
B1	347

target: T5, cloned human SRIF receptor SSTR5 (human, UniProt P35346 1-364); test: as above
T5 construct: whole, on cells; assayed as cryostat sections of membrane pellets of the transfected cells; also called hSSTR5
T5 sequence (P35346 whole entry): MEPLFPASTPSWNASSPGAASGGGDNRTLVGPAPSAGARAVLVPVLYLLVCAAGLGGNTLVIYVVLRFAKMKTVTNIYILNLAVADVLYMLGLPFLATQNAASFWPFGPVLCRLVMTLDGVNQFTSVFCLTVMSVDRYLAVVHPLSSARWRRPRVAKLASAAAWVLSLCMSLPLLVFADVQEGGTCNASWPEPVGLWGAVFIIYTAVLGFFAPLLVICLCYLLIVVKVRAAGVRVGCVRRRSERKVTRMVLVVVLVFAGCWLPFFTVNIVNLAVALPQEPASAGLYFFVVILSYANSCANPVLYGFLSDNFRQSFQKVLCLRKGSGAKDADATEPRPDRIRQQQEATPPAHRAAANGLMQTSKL
Method: as §1, §2

Binder	IC50 [nM]
B4	668
B5	360
B6	110
B7	199
B8	633
